Legend:
5HT3a = biological target: T1, 5HT3a (Homo sapiens, UniProt P46098); test: Ion channel panel (IonWorks Barracuda): 5HT3a; type: cell-based
T1 construct: host or cells: HEK293 or CHO
T1 sequence (P46098 whole entry, looked up): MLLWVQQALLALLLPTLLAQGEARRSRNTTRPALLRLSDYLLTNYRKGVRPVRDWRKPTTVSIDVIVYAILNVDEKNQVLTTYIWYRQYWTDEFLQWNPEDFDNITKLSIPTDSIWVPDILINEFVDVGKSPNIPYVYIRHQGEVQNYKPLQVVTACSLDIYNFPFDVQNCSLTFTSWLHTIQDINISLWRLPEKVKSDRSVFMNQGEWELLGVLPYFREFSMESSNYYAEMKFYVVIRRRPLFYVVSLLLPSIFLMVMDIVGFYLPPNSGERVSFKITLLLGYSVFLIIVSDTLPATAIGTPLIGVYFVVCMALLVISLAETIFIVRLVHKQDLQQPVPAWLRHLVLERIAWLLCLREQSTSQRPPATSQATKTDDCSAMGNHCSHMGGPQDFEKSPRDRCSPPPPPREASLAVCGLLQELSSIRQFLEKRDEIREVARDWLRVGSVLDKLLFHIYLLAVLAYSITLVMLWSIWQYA
In short: (§1)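 Peptides were tested in duplicate at final 20 μM and 200 nM, with concentration set by amino acid analysis, in HEPES-buffered saline. They were applied for at least 5 min to HEK293 or CHO cells transfected with each channel. Currents were expressed as % inhibition, 1-(Ipeptide/Icontrol)×100, or % activation, Ipeptide/Icontrol×100, against a channel-matched reference compound.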

α3β4 = biological target: T2, α3β4 (Homo sapiens, UniProt P30926+P32297); test: Ion channel panel (IonWorks Barracuda): α3β4; type: cell-based; conditions: 100% = no change, <100% = inhibition
T2 construct: host or cells: HEK293 or CHO
In short: as §1

α4β2 = biological target: T3, α4β2 (Homo sapiens, UniProt P17787+P43681); test: Ion channel panel (IonWorks Barracuda): α4β2; type: cell-based; conditions: 100% = no change, <100% = inhibition
T3 construct: host or cells: HEK293 or CHO
In short: as §1

Cav2.1 = biological target: T4, Cav2.1 (Homo sapiens, UniProt O00555); test: cell-based; conditions: 100% = no change, <100% = inhibition
T4 construct: host or cells: HEK293 or CHO
In short: as §1

Cav2.2 = biological target: T5, Cav2.2 (Homo sapiens, UniProt Q00975); test: cell-based; conditions: 100% = no change, <100% = inhibition
T5 construct: host or cells: HEK293 or CHO
In short: as §1

Kv2.1 = biological target: T6, Kv2.1 (Homo sapiens, UniProt Q14721); test: cell-based; conditions: 100% = no change, <100% = inhibition
T6 construct: host or cells: HEK293 or CHO
In short: as §1

GABA = test: Ion channel panel (IonWorks Barracuda): GABA; type: cell-based; conditions: 100% = no change, <100% = inhibition
In short: as §1

Nav1.5 = Nav1.5 (Homo sapiens, UniProt Q14524); test: in vitro; conditions: 100% = no change; for Activity of Nav1.5 with peptide, expressed as a percentage of the reference compound: peptide at 0.2 μM; for Activity of Nav1.5 with peptide (percentage of the reference compound): peptide at 20 μM
Chain of Nav1.5 (Q14524 whole entry): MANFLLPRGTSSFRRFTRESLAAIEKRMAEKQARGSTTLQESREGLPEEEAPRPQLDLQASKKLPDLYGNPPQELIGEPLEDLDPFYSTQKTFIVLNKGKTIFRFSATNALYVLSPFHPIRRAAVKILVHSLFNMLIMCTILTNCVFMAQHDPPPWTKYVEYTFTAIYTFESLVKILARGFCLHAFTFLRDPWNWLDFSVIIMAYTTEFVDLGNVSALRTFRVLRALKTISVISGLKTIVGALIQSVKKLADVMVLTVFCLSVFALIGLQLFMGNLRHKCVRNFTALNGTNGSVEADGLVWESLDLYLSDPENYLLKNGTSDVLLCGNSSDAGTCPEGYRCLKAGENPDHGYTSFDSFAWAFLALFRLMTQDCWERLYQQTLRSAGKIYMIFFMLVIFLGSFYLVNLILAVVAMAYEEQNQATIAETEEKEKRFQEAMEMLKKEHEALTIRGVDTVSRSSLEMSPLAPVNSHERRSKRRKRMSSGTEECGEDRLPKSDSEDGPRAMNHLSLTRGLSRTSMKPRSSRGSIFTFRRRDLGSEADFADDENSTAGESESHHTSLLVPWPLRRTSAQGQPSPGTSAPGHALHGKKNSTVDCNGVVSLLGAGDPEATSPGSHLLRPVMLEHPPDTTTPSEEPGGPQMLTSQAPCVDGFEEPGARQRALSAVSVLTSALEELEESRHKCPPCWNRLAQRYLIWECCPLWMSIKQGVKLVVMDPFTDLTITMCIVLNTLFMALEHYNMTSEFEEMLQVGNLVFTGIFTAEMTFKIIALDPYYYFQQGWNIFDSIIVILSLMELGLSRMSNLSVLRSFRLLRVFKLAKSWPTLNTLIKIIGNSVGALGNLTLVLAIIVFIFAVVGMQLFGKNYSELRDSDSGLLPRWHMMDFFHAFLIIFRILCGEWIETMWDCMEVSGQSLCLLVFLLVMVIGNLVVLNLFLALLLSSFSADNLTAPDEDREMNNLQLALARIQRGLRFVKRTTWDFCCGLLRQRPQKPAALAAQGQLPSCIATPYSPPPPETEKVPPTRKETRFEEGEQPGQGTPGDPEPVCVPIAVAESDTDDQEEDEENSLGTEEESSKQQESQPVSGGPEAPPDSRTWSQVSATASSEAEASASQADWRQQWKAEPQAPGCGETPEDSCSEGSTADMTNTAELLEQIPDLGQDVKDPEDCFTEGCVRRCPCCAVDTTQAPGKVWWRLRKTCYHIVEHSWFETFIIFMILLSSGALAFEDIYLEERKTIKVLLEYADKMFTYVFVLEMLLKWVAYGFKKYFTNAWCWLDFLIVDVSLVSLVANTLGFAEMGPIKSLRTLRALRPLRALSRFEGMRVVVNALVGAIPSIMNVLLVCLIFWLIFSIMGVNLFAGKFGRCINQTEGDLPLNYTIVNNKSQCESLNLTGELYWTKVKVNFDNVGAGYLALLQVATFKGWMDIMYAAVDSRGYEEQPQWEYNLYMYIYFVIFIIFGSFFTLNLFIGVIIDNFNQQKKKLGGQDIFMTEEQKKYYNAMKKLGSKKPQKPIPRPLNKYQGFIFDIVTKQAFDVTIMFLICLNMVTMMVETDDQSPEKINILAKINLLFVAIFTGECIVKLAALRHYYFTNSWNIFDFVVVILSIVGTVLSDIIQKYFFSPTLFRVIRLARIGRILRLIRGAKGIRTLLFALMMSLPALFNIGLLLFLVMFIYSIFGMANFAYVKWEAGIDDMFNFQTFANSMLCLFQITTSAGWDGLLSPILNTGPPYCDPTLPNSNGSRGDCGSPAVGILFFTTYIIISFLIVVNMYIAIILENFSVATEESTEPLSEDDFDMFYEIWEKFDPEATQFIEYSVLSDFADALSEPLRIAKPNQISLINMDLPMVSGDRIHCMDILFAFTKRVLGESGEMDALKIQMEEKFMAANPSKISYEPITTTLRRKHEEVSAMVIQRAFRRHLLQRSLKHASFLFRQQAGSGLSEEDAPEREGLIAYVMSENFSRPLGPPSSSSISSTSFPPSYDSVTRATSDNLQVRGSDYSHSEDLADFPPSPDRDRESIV
In short: as §1

hERG = hERG (Homo sapiens, UniProt Q12809); test: in vitro; conditions: 100% = no change, <100% = inhibition
Chain of hERG (Q12809 whole entry): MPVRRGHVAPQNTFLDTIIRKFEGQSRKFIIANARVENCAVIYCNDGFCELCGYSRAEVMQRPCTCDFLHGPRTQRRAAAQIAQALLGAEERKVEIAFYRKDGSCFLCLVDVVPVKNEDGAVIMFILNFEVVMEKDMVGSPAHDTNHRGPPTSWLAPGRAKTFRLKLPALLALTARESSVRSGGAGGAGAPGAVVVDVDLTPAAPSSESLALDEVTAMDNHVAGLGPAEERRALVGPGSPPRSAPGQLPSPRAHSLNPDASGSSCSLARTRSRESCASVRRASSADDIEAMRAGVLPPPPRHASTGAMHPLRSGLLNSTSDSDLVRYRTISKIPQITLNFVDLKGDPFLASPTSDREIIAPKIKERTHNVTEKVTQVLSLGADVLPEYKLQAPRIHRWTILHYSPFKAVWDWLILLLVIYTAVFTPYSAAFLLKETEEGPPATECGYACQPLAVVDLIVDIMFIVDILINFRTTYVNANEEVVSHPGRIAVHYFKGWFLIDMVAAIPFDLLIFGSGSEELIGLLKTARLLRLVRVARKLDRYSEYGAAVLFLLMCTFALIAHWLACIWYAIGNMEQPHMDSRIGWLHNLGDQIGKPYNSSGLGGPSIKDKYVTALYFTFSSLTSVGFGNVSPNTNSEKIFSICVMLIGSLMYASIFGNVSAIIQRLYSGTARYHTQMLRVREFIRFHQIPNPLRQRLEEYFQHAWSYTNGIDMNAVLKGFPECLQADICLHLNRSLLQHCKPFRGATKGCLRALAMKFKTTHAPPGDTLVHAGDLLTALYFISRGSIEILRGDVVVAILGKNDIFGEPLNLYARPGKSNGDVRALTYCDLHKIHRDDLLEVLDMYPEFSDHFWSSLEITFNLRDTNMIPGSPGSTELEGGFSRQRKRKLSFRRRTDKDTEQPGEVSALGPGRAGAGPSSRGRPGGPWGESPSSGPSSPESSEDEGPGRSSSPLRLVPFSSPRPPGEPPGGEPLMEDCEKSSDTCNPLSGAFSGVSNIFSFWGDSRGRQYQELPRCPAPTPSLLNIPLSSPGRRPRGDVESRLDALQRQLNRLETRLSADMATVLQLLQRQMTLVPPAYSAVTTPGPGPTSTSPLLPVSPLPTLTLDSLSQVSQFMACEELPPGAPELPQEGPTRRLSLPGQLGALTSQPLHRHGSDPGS
In short: as §1

Kir2.1 = biological target: T7, Kir2.1 (Homo sapiens, UniProt P63252); test: Ion channel panel (IonWorks Barracuda): Kir2.1; type: cell-based; conditions: 100% = no change, <100% = inhibition
T7 construct: host or cells: HEK293 or CHO
In short: as §1

Kv1.1 = biological target: T8, Kv1.1 (Homo sapiens, UniProt Q09470); test: cell-based; type: cell-based; conditions: 100% = no change, <100% = inhibition
T8 construct: host or cells: HEK293 or CHO
In short: as §1

Kv1.2 = biological target: T9, Kv1.2 (Homo sapiens, UniProt P16389); test: cell-based; type: cell-based; conditions: 100% = no change, <100% = inhibition
T9 construct: host or cells: HEK293 or CHO
In short: as §1

Kv1.3 = biological target: T10, Kv1.3 (Homo sapiens, UniProt P22001); test: cell-based; type: cell-based; conditions: 100% = no change, <100% = inhibition
T10 construct: host or cells: HEK293 or CHO
In short: as §1

Nav1.7 = biological target: T11, Nav1.7 (Homo sapiens, UniProt Q15858); test: cell-based; type: cell-based; conditions: 100% = no change; for Activity of Nav1.7 with peptide, expressed as a percentage of the reference compound: peptide at 0.2 μM; for Activity of Nav1.7 with peptide (percentage of the reference compound): peptide at 20 μM
T11 construct: host or cells: HEK293 or CHO
T11 sequence (Q15858 whole entry): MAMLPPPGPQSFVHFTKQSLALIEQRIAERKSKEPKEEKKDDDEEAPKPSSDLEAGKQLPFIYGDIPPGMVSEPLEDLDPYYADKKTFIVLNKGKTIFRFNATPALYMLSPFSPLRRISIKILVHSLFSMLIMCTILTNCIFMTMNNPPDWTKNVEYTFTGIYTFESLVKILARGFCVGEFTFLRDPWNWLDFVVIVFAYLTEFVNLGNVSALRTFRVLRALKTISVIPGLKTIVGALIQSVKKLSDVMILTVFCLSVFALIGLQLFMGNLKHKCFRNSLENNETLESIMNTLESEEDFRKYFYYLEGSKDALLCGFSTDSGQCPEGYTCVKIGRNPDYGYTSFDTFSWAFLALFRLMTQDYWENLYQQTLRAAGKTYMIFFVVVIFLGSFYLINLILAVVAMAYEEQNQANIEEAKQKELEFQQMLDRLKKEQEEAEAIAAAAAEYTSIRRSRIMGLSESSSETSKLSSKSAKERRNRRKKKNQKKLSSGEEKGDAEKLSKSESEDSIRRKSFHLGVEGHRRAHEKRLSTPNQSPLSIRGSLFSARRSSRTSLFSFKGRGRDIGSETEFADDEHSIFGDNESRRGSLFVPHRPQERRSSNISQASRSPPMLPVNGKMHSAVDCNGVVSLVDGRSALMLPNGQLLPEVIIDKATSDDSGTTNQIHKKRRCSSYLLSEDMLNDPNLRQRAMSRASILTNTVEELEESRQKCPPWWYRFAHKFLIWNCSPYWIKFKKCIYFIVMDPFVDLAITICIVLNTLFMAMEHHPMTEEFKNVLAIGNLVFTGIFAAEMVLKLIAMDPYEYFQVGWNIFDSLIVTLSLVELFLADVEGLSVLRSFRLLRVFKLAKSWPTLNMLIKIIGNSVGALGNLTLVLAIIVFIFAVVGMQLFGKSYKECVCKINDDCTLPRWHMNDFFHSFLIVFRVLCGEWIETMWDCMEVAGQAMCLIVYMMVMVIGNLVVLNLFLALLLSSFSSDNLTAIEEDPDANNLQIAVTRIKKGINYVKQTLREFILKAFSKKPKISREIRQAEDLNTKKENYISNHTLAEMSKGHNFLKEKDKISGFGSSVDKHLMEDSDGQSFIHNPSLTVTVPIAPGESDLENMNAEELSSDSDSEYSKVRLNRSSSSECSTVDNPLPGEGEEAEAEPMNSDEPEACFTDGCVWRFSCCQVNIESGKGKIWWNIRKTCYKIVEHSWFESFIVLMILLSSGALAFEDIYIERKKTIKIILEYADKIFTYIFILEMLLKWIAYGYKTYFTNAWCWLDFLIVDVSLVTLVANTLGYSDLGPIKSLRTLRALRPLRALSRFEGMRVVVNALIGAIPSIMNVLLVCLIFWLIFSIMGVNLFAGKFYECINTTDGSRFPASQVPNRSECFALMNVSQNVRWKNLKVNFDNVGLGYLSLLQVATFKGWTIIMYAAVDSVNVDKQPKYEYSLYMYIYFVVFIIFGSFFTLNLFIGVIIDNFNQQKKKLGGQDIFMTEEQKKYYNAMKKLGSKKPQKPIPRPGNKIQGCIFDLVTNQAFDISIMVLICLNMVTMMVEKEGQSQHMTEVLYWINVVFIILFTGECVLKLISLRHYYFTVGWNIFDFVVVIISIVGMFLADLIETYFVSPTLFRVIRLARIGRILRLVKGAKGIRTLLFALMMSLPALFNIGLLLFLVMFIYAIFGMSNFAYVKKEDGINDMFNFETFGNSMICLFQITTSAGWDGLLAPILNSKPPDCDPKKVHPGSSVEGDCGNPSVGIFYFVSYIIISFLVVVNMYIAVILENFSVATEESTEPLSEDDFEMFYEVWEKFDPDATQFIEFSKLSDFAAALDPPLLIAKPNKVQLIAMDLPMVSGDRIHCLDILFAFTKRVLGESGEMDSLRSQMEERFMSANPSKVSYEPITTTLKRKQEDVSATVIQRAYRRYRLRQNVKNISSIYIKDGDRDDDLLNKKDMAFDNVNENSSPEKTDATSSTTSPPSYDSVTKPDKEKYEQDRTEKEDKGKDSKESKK

NR2A = biological target: T12, NR2A (Homo sapiens, UniProt Q12879); test: Ion channel panel (IonWorks Barracuda): NR2A; type: cell-based; conditions: 100% = no change, <100% = inhibition
T12 construct: host or cells: HEK293 or CHO
In short: as §1

NR2B = biological target: T13, NR2B (Homo sapiens, UniProt Q13224); test: Ion channel panel (IonWorks Barracuda): NR2B; type: cell-based; conditions: 100% = no change, <100% = inhibition
T13 construct: host or cells: HEK293 or CHO
In short: as §1

TRPA1 = biological target: T14, TRPA1 (Homo sapiens, UniProt O75762); test: Ion channel panel (IonWorks Barracuda): TRPA1; type: cell-based; conditions: 100% = no change, <100% = inhibition
T14 construct: host or cells: HEK293 or CHO
In short: as §1

TRPV1 = biological target: T15, TRPV1 (Homo sapiens, UniProt Q8NER1); test: Ion channel panel (IonWorks Barracuda): TRPV1; type: cell-based; conditions: 100% = no change, <100% = inhibition
T15 construct: host or cells: HEK293 or CHO
In short: as §1

[1] = first of two Nav1.5 columns (probably TP1)
[2] = second of two Nav1.5 columns (probably TP2)
[3] = first of two Nav1.7 columns (probably TP1)
[4] = second of two Nav1.7 columns (probably TP2)

## 17 (GSRPTDIKCSASYQCFPVCKSRFGKTNGRCVNGLCDCF) [compound 17]
5HT3a
  Activity of 5HT3a with peptide (percentage of the reference compound): 85%
  Activity of 5HT3a with peptide, expressed as a percentage of the reference compound: 81%
α3β4; peptide at 0.2 μM
  Activity of a3b4 with peptide, expressed as a percentage of the reference compound: 98%
α3β4; peptide at 20 μM
  Activity of a3b4 with peptide (percentage of the reference compound): 97%
α4β2; peptide at 0.2 μM
  Activity of a4b2 with peptide, expressed as a percentage of the reference compound: 93%
α4β2; peptide at 20 μM
  Activity of a4b2 with peptide (percentage of the reference compound): 78%
Cav2.1; peptide at 0.2 μM
  Activity of Cav2.1 with peptide, expressed as a percentage of the reference compound: 107%
Cav2.1; peptide at 20 μM
  Activity of Cav2.1 with peptide (percentage of the reference compound): 90%
Cav2.2; peptide at 0.2 μM
  Activity of Cav2.2 with peptide, expressed as a percentage of the reference compound: 117%
Cav2.2; peptide at 20 μM
  Activity of Cav2.2 with peptide (percentage of the reference compound): 100%
Kv2.1; peptide at 0.2 μM
  Activity of Kv2.1 with peptide, expressed as a percentage of the reference compound: 88%
Kv2.1; peptide at 20 μM
  Activity of Kv2.1 with peptide (percentage of the reference compound): 93%
GABA; peptide at 0.2 μM
  Activity of GABA with peptide, expressed as a percentage of the reference compound: 97%
GABA; peptide at 20 μM
  Activity of GABA with peptide (percentage of the reference compound): 108%
Nav1.5; [1]
  Activity of Nav1.5 with peptide, expressed as a percentage of the reference compound: 96%
  Activity of Nav1.5 with peptide (percentage of the reference compound): 95%
Nav1.5; [2]
  Activity of Nav1.5 with peptide, expressed as a percentage of the reference compound: 95%
  Activity of Nav1.5 with peptide (percentage of the reference compound): 94%
hERG; peptide at 0.2 μM
  Activity of hERG with peptide, expressed as a percentage of the reference compound: 85%
hERG; peptide at 20 μM
  Activity of hERG with peptide (percentage of the reference compound): 8%
Kir2.1; peptide at 0.2 μM
  Activity of Kir2.1 with peptide, expressed as a percentage of the reference compound: 103%
Kir2.1; peptide at 20 μM
  Activity of Kir2.1 with peptide (percentage of the reference compound): 84%
Kv1.1; peptide at 0.2 μM
  Activity of Kv1.1 with peptide, expressed as a percentage of the reference compound: 106%
Kv1.1; peptide at 20 μM
  Activity of Kv1.1 with peptide (percentage of the reference compound): 89%
Kv1.2; peptide at 0.2 μM
  Activity of Kv1.2 with peptide, expressed as a percentage of the reference compound: 97%
Kv1.2; peptide at 20 μM
  Activity of Kv1.2 with peptide (percentage of the reference compound): 47%
Kv1.3; peptide at 0.2 μM
  Activity of Kv1.3 with peptide, expressed as a percentage of the reference compound: 96%
Kv1.3; peptide at 20 μM
  Activity of Kv1.3 with peptide (percentage of the reference compound): 6%
Nav1.7; [3]
  Activity of Nav1.7 with peptide, expressed as a percentage of the reference compound: 66%
  Activity of Nav1.7 with peptide (percentage of the reference compound): 75%
Nav1.7; [4]
  Activity of Nav1.7 with peptide, expressed as a percentage of the reference compound: 61%
  Activity of Nav1.7 with peptide (percentage of the reference compound): 60%
NR2A; peptide at 0.2 μM
  Activity of NR2A with peptide, expressed as a percentage of the reference compound: 83%
NR2A; peptide at 20 μM
  Activity of NR2A with peptide (percentage of the reference compound): 96%
NR2B; peptide at 0.2 μM
  Activity of NR2B with peptide, expressed as a percentage of the reference compound: 90%
NR2B; peptide at 20 μM
  Activity of NR2B with peptide (percentage of the reference compound): 77%
TRPA1; peptide at 0.2 μM
  Activity of TRPA1 with peptide, expressed as a percentage of the reference compound: 176%
TRPA1; peptide at 20 μM
  Activity of TRPA1 with peptide (percentage of the reference compound): 129%
TRPV1; peptide at 0.2 μM
  Activity of TRPV1 with peptide, expressed as a percentage of the reference compound: 99%
TRPV1; peptide at 20 μM
  Activity of TRPV1 with peptide (percentage of the reference compound): 82%

From patent US20200262877A1, “ION CHANNEL-BINDING PEPTIDES AND METHODS OF USE THEREOF” (priority 2017, published 2020)
